Assay results reported in US20160145343A1 (UNIVERSITY OF PITTSBURGH OF THE COMMONWEALTH SYSTEM OF …, published 2016).
Where a chain is given by its changes, count along the chain named. Where no end group is shown, it is not given here. The star is where a group is joined. αGalNAc = CC(=O)N[C@@H]1[C@@H](O)[C@@H](O)[C@@H](CO)O[C@@H]1*; Galβ1‑3GalNAc = TF-antigen

Assays:
[1] = target: T1, SEQ ID NO: 346 glycopeptide with Tn-antigen at Thr4, Thr9 and Thr16; test: ELISA on coated glycopeptide, antibody 0.01 mg/ml, mean of 3
T1 construct: also called T4^Tn/T9^Tn/T16^Tn
T1 peptide: HGVT(αGalNAc)SAPDT(αGalNAc)RPAPGST(αGalNAc)APP
Excerpt: (§1) Selected antibodies from Table 1 were further characterized for binding to synthetic MUC1 glycopeptides that were synthesized with the GalNac or GaNac-Gal carbohydrates on various serines and threonines along the MUC1 tandem repeat. If placed within the specific epitope recognized by an antibody, the antibody would not bind that particular glycopeptide.

[2] = target: T2, SEQ ID NO: 346 glycopeptide with TF-antigen at Thr16; test: as above
T2 construct: also called T16^TF
T2 peptide: HGVTSAPDTRPAPGST(Galβ1‑3GalNAc)APP
Excerpt: as §1

[3] = target: T3, SEQ ID NO: 346 glycopeptide with TF-antigen at Thr4; test: as above
T3 construct: also called T4^TF
T3 peptide: HGVT(Galβ1‑3GalNAc)SAPDTRPAPGSTAPP
Excerpt: as §1

[4] = target: T4, SEQ ID NO: 346 glycopeptide with TF-antigen at Thr4 and Thr9; test: as above
T4 construct: also called T4^TF/T9^TF
T4 peptide: HGVT(Galβ1‑3GalNAc)SAPDT(Galβ1‑3GalNAc)RPAPGSTAPP
Excerpt: as §1

[5] = target: T5, SEQ ID NO: 346 glycopeptide with TF-antigen at Thr9; test: as above
T5 construct: also called T9^TF
T5 peptide: HGVTSAPDT(Galβ1‑3GalNAc)RPAPGSTAPP
Excerpt: as §1

[6] = target: T6, SEQ ID NO: 346 glycopeptide with TF-antigen at Ser5 (not fully specified (residue 5)); test: as above
T6 construct: also called S5^TF
T6 peptide: HGVTSAPDTRPAPGSTAPP
Excerpt: as §1

[7] = target: T7, Synthetic peptide HGVTSAPDTRPAPGSTAPP; test: ELISA on coated peptide, antibody 0.01 mg/ml, mean of 3
T7 construct: Unglycosylated; also called 346; MUC1 repeat
T7 peptide: HGVTSAPDTRPAPGSTAPP
Excerpt: as §1

[8] = target: T8, Synthetic peptide (GVTSAPDTRPAPGSTAPPAH)2; test: as above
T8 peptide: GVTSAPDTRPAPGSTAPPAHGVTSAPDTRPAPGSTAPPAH
Excerpt: as §1

[9] = target: T9, 100 aa-long synthetic MUC1 peptide (…)5; test: ELISA titration on coated 100-mer peptide, EC50 approximated
T9 construct: also called 100-mer; vaccine 100-mer peptide
Excerpt: (§2) Heavy and light chains of antibodies reactive against MUC1 were generated from plasma of individuals vaccinated with a 100 aa-long synthetic MUC1 peptide (100-mer) representing the unglycosylated tumor associated MUC1 antigen (Kimura et al., 2013, Cancer Prev. Res. (Phila.), 6:18-26). Binding of monoclonal antibodies produced by combinatorial pairing of chains was characterized by ELISA using the vaccine 100-mer peptide consisting of the following sequence ([…])₅ (SEQ ID NO: 2). Briefly, 96-well high-binding ELISA plates were coated with 50 μl of the peptide diluted in carbonate buffer at 2 μg/ml. The wells were washed then blocked with 5% fat-free milk in phosphate-buffered saline (PBS). Antibodies were diluted in 5% milk in PBS with 0.1% TWEEN 20 (PBS-T) and then added to the peptide-coated, blocked wells and incubated at 37° C. for 2 hours, after which the wells were washed. Binding of antibody was probed with an anti-human IgG goat antibody conjugated to horseradish peroxidase (HRP), and signal was detected with 3,3′,5,5′-tetramethylbenzidine (TMB) substrate, which was neutralized with an acid, then the 450 nm absorbance was read. […] Additionally, the EC₅₀ of each antibody was approximated by ELISA titration (Table 1).

[10] = target: T9, 100 aa-long synthetic MUC1 peptide (…)5; test: ELISA on coated 100-mer peptide
Excerpt: as §2

B1: M3 (antibody, human IgG1, lambda, V domains shown)
VH: QLQLQESGPGLVKPSETLSLTCTVSGGSISSSSYYWGWIRQPPGKGLEWIGSIYYSGSTHYNPSLKSRVTISVDTSKNQFSLKLRSVTAADTAVYYCARGVVEVRGNHYYYYYMDVWGKGTTVTVSS
VL: QSVLTQPPSVSGAPGQRVTISCTGSSSNIGAGYDVHWYQQLPGTAPKLLIYGNSYRPSGVPDRFSGSKSGTSASLAITGLQAEDEADYYCQSYDSSLSGSGVFGGGTKLTVLG
notes: Human IgG
[1]
  ELISA absorbance at 450 nm: 0.1 absorbance
[2]
  ELISA absorbance at 450 nm: 0.1 absorbance
[3]
  ELISA absorbance at 450 nm: 0.1 absorbance
[4]
  ELISA absorbance at 450 nm: 0.1 absorbance
[5]
  ELISA absorbance at 450 nm: 0.1 absorbance
[6]
  ELISA absorbance at 450 nm: 0.1 absorbance
[7]
  ELISA absorbance at 450 nm: 0.1 absorbance
[8]
  ELISA absorbance at 450 nm: 3.1 absorbance
[9]
  EC50: 11 ng/mL

B2: M4 (antibody, human IgG1, lambda, V domains shown)
VH: B1 VH with S67R, V73E, R85S, Y113H, V116A
VL: B1 VL with R17G, T44S, L48F, L49F, N53S, S54N, Y55N
notes: Human IgG
[9]
  EC50: 4 ng/mL

B3: M20 (antibody, human IgG1, kappa, V domains shown)
VH: EVQLVESGGGLVQPGGSLRLSCAASGFTFSSYWMHWVRQAPGKGLVWVSHINSDGSSTSYADSVKGRFTISRDNAKNTLYLQMNSLRAEDTAVYYCARELADWGQGTLVTVSS
VL: DVVMTQSPLSLPVTLGQPASISCRSSQSLVYSDGNTYLNWFQQRPGQSPRRLIYQVSNRDSGVPDRFSGSGSGTDFTLKIGRVEAEDVGVYFCMQGTHWPWTFGQGTKVEIKR
notes: Human IgG
[3]
  ELISA absorbance at 450 nm: 2 absorbance
[4]
  ELISA absorbance at 450 nm: 1.9 absorbance
[5]
  ELISA absorbance at 450 nm: 1.9 absorbance
[6]
  ELISA absorbance at 450 nm: 2.1 absorbance
[7]
  ELISA absorbance at 450 nm: 1.9 absorbance
[8]
  ELISA absorbance at 450 nm: 2.8 absorbance
[9]
  EC50: 4 ng/mL

B4: M21 (antibody, human IgG1, kappa, V domains shown)
VH: EVQLVESGGGLVQPGGSLRLSCAASGFTVSSNYMSWVRQAPGKGLEWVSVIYSGGSTYYADSVKGRFTISRDNSKNTLYLQMNSLRAEDTAVYYCARDQEHYFDGSGYYVDYWGQGTLVTVSS
VL: B3 VL
notes: Human IgG
[3]
  ELISA absorbance at 450 nm: 2.1 absorbance
[4]
  ELISA absorbance at 450 nm: 2.2 absorbance
[5]
  ELISA absorbance at 450 nm: 2.1 absorbance
[6]
  ELISA absorbance at 450 nm: 2.1 absorbance
[7]
  ELISA absorbance at 450 nm: 2.1 absorbance
[8]
  ELISA absorbance at 450 nm: 3 absorbance
[9]
  EC50: 11 ng/mL

B5: M22 (antibody, human IgG1, kappa, V domains shown)
VH: EVQLVESGGGLVQPGGSLRLSCAASGFTVSSNYMSWVRQAPGKGLEWVSVIYSGGTTYYADSVKGRFTISRHNSKNTLYLQMNSLRAEDTAVYYCARDHDPDYGGYYMDVWGKGTTVTVSS
VL: B3 VL
notes: Human IgG
[3]
  ELISA absorbance at 450 nm: 2.2 absorbance
[4]
  ELISA absorbance at 450 nm: 2.3 absorbance
[5]
  ELISA absorbance at 450 nm: 2.3 absorbance
[6]
  ELISA absorbance at 450 nm: 2.2 absorbance
[7]
  ELISA absorbance at 450 nm: 2.1 absorbance
[8]
  ELISA absorbance at 450 nm: 3.1 absorbance
[9]
  EC50: 7 ng/mL

B6: M6 (antibody, human IgG1, kappa, V domains shown)
VH: EVQLVESGGGLVQPGGSLRLSCAASGFTVSSNYMSWVRQAPGKGLEWVSVIYSGGSTYYADSVKGRFTISRDNSKNTLYLQMNSLRAEDTAVYYCARGSTNTYYYDSSGHPWGQGTMVTVSS
VL: not shown
notes: Human IgG
[9]
  EC50: 12 ng/mL

B7: M5 (antibody, human IgG1, kappa, V domains shown)
VH: B6 VH
VL: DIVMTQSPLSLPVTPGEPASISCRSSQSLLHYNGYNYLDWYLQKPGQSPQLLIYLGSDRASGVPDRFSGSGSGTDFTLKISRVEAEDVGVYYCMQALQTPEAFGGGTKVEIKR
notes: Human IgG
[9]
  EC50: 100 ng/mL

B8: M1 (antibody, human IgG1, kappa, V domains shown)
VH: QLQLQESGPGLVKPSETLSLTCTVSGGSISSSRYYWGWIRQPPGKGLEWIGSIYYSGSTYYNPSLKSRVTISVDTSNNQFSLKLTSVTAADTAVYYCARLPESGGYSGWFDPWGQGTLVTVSS
VL: not shown
notes: Human IgG
[1]
  ELISA absorbance at 450 nm: 0.1 absorbance
[2]
  ELISA absorbance at 450 nm: 0.1 absorbance
[3]
  ELISA absorbance at 450 nm: 0.1 absorbance
[4]
  ELISA absorbance at 450 nm: 0.1 absorbance
[5]
  ELISA absorbance at 450 nm: 0.1 absorbance
[6]
  ELISA absorbance at 450 nm: 0.1 absorbance
[7]
  ELISA absorbance at 450 nm: 0.1 absorbance
[8]
  ELISA absorbance at 450 nm: 3.2 absorbance
[9]
  EC50: 11 ng/mL

B9: M2 (antibody, human IgG1, kappa, V domains shown)
VH: B8 VH
VL: not shown
notes: Human IgG
[1]
  ELISA absorbance at 450 nm: 0.1 absorbance
[2]
  ELISA absorbance at 450 nm: 0.1 absorbance
[3]
  ELISA absorbance at 450 nm: 0.1 absorbance
[4]
  ELISA absorbance at 450 nm: 0.1 absorbance
[5]
  ELISA absorbance at 450 nm: 0.1 absorbance
[6]
  ELISA absorbance at 450 nm: 0.1 absorbance
[7]
  ELISA absorbance at 450 nm: 0.1 absorbance
[8]
  ELISA absorbance at 450 nm: 3.4 absorbance
[9]
  EC50: 7 ng/mL

B10: M16 (antibody, human IgG1, kappa, V domains shown)
VH: QVQLVESGGGLVKPGGSLRLSCAASGFTFSDYYMSWIRQAPGKGLEWVSYISSSGTTKYYADSVKGRFTISRDNAKNSLYLQMNSLRAEDTAVYYCVRENLGYCSGGSCFYYYYMDVWGKGTTVTVSS
VL: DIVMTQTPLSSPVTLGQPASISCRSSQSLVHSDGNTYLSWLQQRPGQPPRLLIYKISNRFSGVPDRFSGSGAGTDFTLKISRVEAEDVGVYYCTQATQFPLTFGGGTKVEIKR
notes: Human IgG
[2]
  ELISA absorbance at 450 nm: 2.2 absorbance
[6]
  ELISA absorbance at 450 nm: 1.3 absorbance
[7]
  ELISA absorbance at 450 nm: 2.2 absorbance
[8]
  ELISA absorbance at 450 nm: 3.3 absorbance
[9]
  EC50: 11 ng/mL

B11: M14 (antibody, human IgG1, kappa, V domains shown)
VH: B10 VH
VL: not shown
[2]
  ELISA absorbance at 450 nm: 2.4 absorbance
[3]
  ELISA absorbance at 450 nm: 1.6 absorbance
[6]
  ELISA absorbance at 450 nm: 2.1 absorbance
[7]
  ELISA absorbance at 450 nm: 2.1 absorbance
[8]
  ELISA absorbance at 450 nm: 2.9 absorbance
[9]
  EC50: 2 ng/mL

B12: M19 (antibody, human IgG1, kappa, V domains shown)
VH: B10 VH with T28I, N100D, L101I
VL: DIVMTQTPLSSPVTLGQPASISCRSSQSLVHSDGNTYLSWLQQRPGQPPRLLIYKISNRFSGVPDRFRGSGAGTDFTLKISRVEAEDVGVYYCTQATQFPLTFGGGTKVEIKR
notes: Human IgG
[10]
  binding result: binds

B13: M23 (antibody, human IgG1, kappa, V domains shown)
VH: B10 VH with L101I, S105T, S108N
VL: not shown
[2]
  ELISA absorbance at 450 nm: 2.5 absorbance
[3]
  ELISA absorbance at 450 nm: 1.7 absorbance
[6]
  ELISA absorbance at 450 nm: 2.4 absorbance
[10]
  binding result: binds
[7]
  ELISA absorbance at 450 nm: 2 absorbance
[8]
  ELISA absorbance at 450 nm: 2.9 absorbance

B14: M18 (antibody, human IgG1, kappa, V domains shown)
VH: B10 VH with T28I, N100D, L101I
VL: not shown
notes: Human IgG
[2]
  ELISA absorbance at 450 nm: 2.5 absorbance
[3]
  ELISA absorbance at 450 nm: 1.5 absorbance
[6]
  ELISA absorbance at 450 nm: 2.7 absorbance
[10]
  binding result: binds
[7]
  ELISA absorbance at 450 nm: 2.4 absorbance
[8]
  ELISA absorbance at 450 nm: 3.3 absorbance

B15: M8 (antibody, human IgG1, kappa, V domains shown)
VH: B10 VH with T56S, K58I, V97A, N100R, L101I, F110Y
VL: not shown
[2]
  ELISA absorbance at 450 nm: 2.5 absorbance
[3]
  ELISA absorbance at 450 nm: 1.6 absorbance
[6]
  ELISA absorbance at 450 nm: 2.1 absorbance
[7]
  ELISA absorbance at 450 nm: 2.1 absorbance
[8]
  ELISA absorbance at 450 nm: 3 absorbance
[9]
  EC50: 4 ng/mL

B16: M15 (antibody, human IgG1, kappa, V domains shown)
VH: B10 VH
VL: not shown
notes: Human IgG
[9]
  EC50: 5 ng/mL

B17: M12 (antibody, human IgG1, kappa, V domains shown)
VH: B10 VH with L101I, S105T, S108N
VL: not shown
notes: Human IgG
[9]
  EC50: 2 ng/mL

B18: M10 (antibody, human IgG1, kappa, V domains shown)
VH: B10 VH with F110Y
VL: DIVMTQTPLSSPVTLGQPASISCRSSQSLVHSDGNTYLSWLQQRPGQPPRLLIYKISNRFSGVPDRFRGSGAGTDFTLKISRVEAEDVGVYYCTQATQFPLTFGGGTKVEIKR
notes: Human IgG
[9]
  EC50: 4 ng/mL

B19: M17 (antibody, human IgG1, kappa, V domains shown)
VH: B10 VH with T28I, N100D, L101I
VL: not shown
[10]
  binding result: binds

B20: M11 (antibody, human IgG1, kappa, V domains shown)
VH: B10 VH with S105T, S108N
VL: not shown
[9]
  EC50: 10 ng/mL

B21: M13 (antibody, human IgG1, kappa, V domains shown)
VH: B10 VH with L101I, S105T, S108N
VL: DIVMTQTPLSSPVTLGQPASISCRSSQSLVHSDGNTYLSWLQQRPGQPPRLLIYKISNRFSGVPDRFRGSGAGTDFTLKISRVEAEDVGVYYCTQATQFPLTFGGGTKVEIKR
notes: Human IgG
[9]
  EC50: 2 ng/mL

B22: M9 (antibody, human IgG1, kappa, V domains shown)
VH: B10 VH with F110Y
VL: not shown
notes: Human IgG
[9]
  EC50: 4 ng/mL
